Data: article PMC7949049 (The Journal of Biological Chemistry, 2020)
Where two headings read alike, the source gives them in different places. Positions of bridges follow the written chain, without caps; N, C: chain ends. Non-standard residues stand in square brackets, D forms with d. Residues, ends and D or L forms follow the SMILES beside them. No end group written: not given here. *: point of attachment. 5FAM = O=C1OC2(c3ccc(O)cc3Oc3cc(O)ccc32)c2ccc(C(=O)*)cc21; S5 = C=CCCC[C@](C)(N)C(=O)O

Assays:
RhoA·GMPPNP = target: T1, RhoA·GMPPNP (Homo sapiens, UniProt P61586, F25N/Q63L); assay: Direct-binding fluorescence polarization, RhoA; settings: 20 nM FAM-labelled non-solubilized peptide; n ≥ 2; ± standard error from curve fitting; read-out: Kd RhoA, FP (Table S1)
T1 construct: RhoA (pGEX-2T, 1–186, F25N/Q63L); GST (cleaved yes); made in house
T1 sequence (P61586 1-186 F25N/Q63L): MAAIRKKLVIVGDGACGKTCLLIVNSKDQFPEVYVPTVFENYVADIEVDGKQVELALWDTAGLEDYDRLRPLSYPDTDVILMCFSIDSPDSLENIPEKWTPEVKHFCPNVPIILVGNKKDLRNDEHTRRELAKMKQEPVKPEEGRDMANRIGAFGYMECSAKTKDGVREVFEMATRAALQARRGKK
Method: (§1) FP experiments were performed on a BMG Labtech Pherastar fluorimeter at 298 K with excitation at 485 nm and emission at 520 nm as described previously ([34]), using 20 nM FAM-labeled peptide. Plates were read after 30 min incubation at room temperature. Data were fitted to a single-site binding model using nonlinear regression analysis in GraphPad prism 8.4 to obtain Kd values and their standard errors.

Cdc42 = target: T2, Cdc42 (Homo sapiens, UniProt P60953, Q61L); assay: Direct-binding fluorescence polarization, Cdc42; settings: 20 nM FAM-labelled non-solubilized peptide; n ≥ 2; ± standard error from curve fitting; read-out: Kd Cdc42, FP (Table S1)
T2 construct: Cdc42 (pGEX-2T, 1–184, Q61L); GST (cleaved yes); made in house
T2 sequence (P60953 1-184 Q61L, species assumed): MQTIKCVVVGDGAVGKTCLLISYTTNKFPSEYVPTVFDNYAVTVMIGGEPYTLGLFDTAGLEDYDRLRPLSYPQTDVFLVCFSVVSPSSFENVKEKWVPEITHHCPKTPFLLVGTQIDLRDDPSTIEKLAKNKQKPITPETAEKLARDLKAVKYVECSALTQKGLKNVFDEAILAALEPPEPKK
Method: as §1

[1] = tested on: V5-RalB Q72L / endogenous Sec5 complex; assay: Coimmunoprecipitation of RalB/Sec5 in HEK293T cell lysate; type: biochemical; settings: peptide 1 h at 4 °C, anti-V5 IP, western blot
Method: (§2) 3 × 10^6 HEK293T cells were seeded in 10 cm dishes 48 h before the end point, in DMEM supplemented with 10% FBS. […] Dishes were lysed in 1 ml lysis buffer (50 mM Tris-HCl pH 7.8, 150 mM NaCl, 1% Triton, 1 mM EDTA, 1 mM sodium orthovanadate, 1 mM β-glycerophosphate, and protease inhibitor cocktail (Sigma-Aldrich). Lysates (1 ml) were centrifuged at 17,000g for 20 min and added to Protein G Dynabeads (30 μl, Invitrogen) preincubated with anti-V5 antibody (1 μg, R960-25, Invitrogen). Peptides, at the concentrations indicated in the results, were added and incubated with rotation for 1 h at 4 °C. Precipitated complexes were washed with lysis buffer (3 × 500 μl). Samples were resolved by SDS-PAGE and transferred to PVDF membranes (Immobilon-P). Membranes were probed by immunoblotting with the following primary antibodies: anti-V5-HRP (R961-25, Invitrogen), anti-flag-HRP (A8592, Sigma-Aldrich), and anti-Sec5 (EPR9420, Abcam).

RalA·GTP = target: T3, RalA·GTP (Homo sapiens, UniProt P11233, Q72L); assay: Competition SPA, RalA against immobilized His-tagged wild-type RLIP76 RBD; type: binding
T3 construct: RalA (pMAT10, residues 1–184, Q72L); His6-MBP (cleaved yes); made in house; host or cells: E. coli (inferred from the pMAT10/pGEX vectors)
T3 sequence (P11233 1-184 Q72L): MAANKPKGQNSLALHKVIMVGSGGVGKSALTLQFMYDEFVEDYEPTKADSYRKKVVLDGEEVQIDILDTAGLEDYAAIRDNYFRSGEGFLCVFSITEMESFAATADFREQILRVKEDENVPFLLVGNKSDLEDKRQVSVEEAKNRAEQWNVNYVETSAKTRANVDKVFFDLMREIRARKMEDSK

[2] = tested on: V5-RalB Q72L / flag-RLIP76 complex; assay: Coimmunoprecipitation of RalB/RLIP76 in HEK293T cell lysate; type: biochemical; settings: V5-RalB Q72L and flag-RLIP76, peptide 1 h at 4 °C, anti-V5 IP, western blot
Method: as §2

[3] = target: SP1 stapled peptide (RLIP76) 423-446 (Homo sapiens) (UniProt Q15311); settings: cited from earlier work
Sequence of SP1 stapled peptide (RLIP76) 423-446 (Homo sapiens) (Q15311 423-446): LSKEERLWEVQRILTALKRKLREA

[4] = target: SP1 stapled peptide (RLIP76) 423-446 (Homo sapiens) (UniProt Q15311); settings: cited from earlier work; remark: listed apart in the source
[5] = target: SP1 stapled peptide (RLIP76) 423-446 (Homo sapiens) (UniProt Q15311); settings: cited from earlier work; remark: listed apart in the source
R-Ras (Homo sapiens) = R-Ras (Homo sapiens) (UniProt P10301); settings: cited from earlier work
Sequence of R-Ras (Homo sapiens) (P10301 1-215): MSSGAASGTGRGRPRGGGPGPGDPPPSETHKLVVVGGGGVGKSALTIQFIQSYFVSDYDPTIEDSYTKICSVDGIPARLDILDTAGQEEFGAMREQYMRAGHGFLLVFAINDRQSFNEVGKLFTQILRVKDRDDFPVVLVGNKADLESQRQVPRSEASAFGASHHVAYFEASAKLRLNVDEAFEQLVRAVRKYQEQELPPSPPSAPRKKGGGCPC

RalB (Homo sapiens) = RalB (Homo sapiens) (UniProt P11234); settings: cited from earlier work
RalA (Homo sapiens) = RalA (Homo sapiens) (UniProt P11233); settings: cited from earlier work
[6] = target: T4, RalA (residues 1–184, Q72L) (UniProt P11233 1-184, Q72L); assay: fluorescence polarisation; 20 nM FAM-labeled peptide, varying concentrations of GMPPNP-bound small GTPases, 298 K, single-site model; settings: both partners purified
T4 construct: RalA small GTPase, residues 1-184, constitutively active Q72L; Loaded with [3H]GTP for SPA, with GMPPNP or GDP for fluorescence polarisation; also called RalA·GTP; [3H]-GTP RalA; source: expressed from pMAT10 as His6-MBP fusion, cleaved from its tag as described previously
T4 sequence (looked up): T3 sequence (P11233 1-184 Q72L)

[7] = target: T5, RalB (residues 1–185, Q72L) (UniProt P11234 1-185, Q72L); assay: as above; settings: both partners purified
T5 construct: Loaded with [3H]GTP for SPA, with GMPPNP for ITC, FP and crystallisation; also called RalB·GTP; source: expressed from pMAT10 as His6-MBP fusion, cleaved from its tag as described previously
T5 sequence (looked up): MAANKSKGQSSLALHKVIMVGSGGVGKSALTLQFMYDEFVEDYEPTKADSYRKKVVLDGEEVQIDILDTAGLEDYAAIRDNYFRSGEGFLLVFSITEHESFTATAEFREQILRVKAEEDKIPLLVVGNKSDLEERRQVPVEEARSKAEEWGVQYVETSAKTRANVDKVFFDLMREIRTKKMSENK

[8] = target: T5, RalB (residues 1–185, Q72L); assay: scintillation proximity assay (competition); His-tagged wild-type RLIP76 RBD immobilised on SPA beads, fixed [3H]GTP·RalA (100 nM) or [3H]GTP·RalB (250 nM), competitor RBD or peptide titrated; pure competition model, apparent Kd (Ki); settings: both partners purified
[9] = target: RalA (residues 1–184, Q72L) (UniProt P11233); assay: as above
[10] = target: T4, RalA (residues 1–184, Q72L); assay: as above; settings: both partners purified
[11] = target: T4, RalA (residues 1–184, Q72L); assay: scintillation proximity assay (competition); GST-tagged Sec5 RBD immobilised on SPA beads, fixed [3H]-GTP RalA, peptides or RLIP76 RBD titrated; pure competition model, apparent Kd (Ki); settings: both partners purified

Which Kd (RhoA·GMPPNP) does the source give for `CC[C@H](C)[C@H](NC(=O)[C@H](CCCNC(=N)N)NC(=O)[C@H](CC(C)C)NC(=O)[C@@H](NC(=O)[C@H](CCC(=O)O)NC(=O)[C@H](Cc1c[nH]c2ccccc12)NC(=O)[C@H](CC(C)C)NC(=O)[C@]1(C)CCCC=CCCC[C@](C)(NC(=O)[C@H](CC(C)C)NC(=O)c2ccc3c(c2)C(=O)OC32c3ccc(O)cc3Oc3cc(O)ccc32)C(=O)N[C@@H](CCCCN)C(=O)N[C@@H](CCC(=O)O)C(=O)N[C@@H](Cc2c[nH]cn2)C(=O)N1)C(C)C)C(=O)N[C@@H](CC(C)C)C(=O)N[C@H](C(=O)N[C@@H](C)C(=O)N[C@@H](CC(C)C)C(=O)N[C@@H](CCCNC(=N)N)C(=O)N[C@@H](CCCNC(=N)N)C(=O)N[C@@H](CCCCN)C(=O)N[C@@H](CC(C)C)C(=O)N[C@@H](CCCNC(=N)N)C(=O)N[C@@H](CCC(=O)O)C(=O)N[C@@H](C)C(N)=O)[C@@H](C)O` [HLR-SP1] (5FAM-L[S5]KEH[S5]LWEVLRILTALRRKLREA-NH2; staple 2-6) here?
Its Kd is 12.5 ± 2.2 nM.

And the Kd (Cdc42)?
Its Kd is 6.11 ± 1.67 µM.

For `CC[C@H](C)[C@H](NC(=O)[C@H](CCCNC(=N)N)NC(=O)[C@H](CCC(N)=O)NC(=O)[C@H](CCC(=O)O)NC(=O)[C@H](CCC(=O)O)NC(=O)[C@H](C)NC(=O)[C@H](CC(C)C)NC(=O)[C@]1(C)CCCC=CCCC[C@](C)(NC(=O)[C@@H](N)CC(C)C)C(=O)N[C@@H](CCCCN)C(=O)N[C@@H](CCC(=O)O)C(=O)N[C@@H](CCC(=O)O)C(=O)N1)C(=O)N[C@@H](CCCCN)C(=O)N[C@H](C(=O)N[C@@H](C)C(=O)N[C@@H](CCC(=O)O)C(=O)N[C@@H](CCCCN)C(=O)N[C@@H](CCCNC(=N)N)C(=O)N[C@@H](CCCCN)C(=O)N[C@@H](CCCCN)C(=O)N[C@@H](CCCNC(=N)N)C(=O)N[C@@H](CCC(=O)O)C(=O)N[C@@H](C)C(N)=O)[C@@H](C)O` [W430A-sol] (H-L[S5]KEE[S5]LAEEQRIKTAEKRKKREA-NH2; staple 2-6; N-terminus assumed), which “disruption of RalB–Sec5 complex in cell lysate” value [1] is on record?
The value was “did not inhibit complex formation”.

And the Kd (RalA·GTP)?
The Kd was > 100 µM.

What about the “Kd RalA·GTP, Competition SPA (RLIP76)” value (RalA·GTP; peptides titrated into [3H]-GTP RalA (100 nM) and His-tagged wild-type RLIP76 RBD on SPA beads, apparent Kd (Ki), ± standard error from curve fitting) of the same molecule?
The value was “very weak binding”.

And the “disruption of RalB–RLIP76 complex in cell lysate” value [2]?
The value was “did not inhibit complex formation”.

With R-Ras (from UniProt P10301) as the molecule, how does the Kd [3] read?
Its Kd is 30 µM.

For RalA (from UniProt P11233), which Kd [4] is on record?
The Kd was 14 µM.

For RalB (from UniProt P11234), which Kd [5] is on record?
The Kd was 5 µM.

Which Kd (R-Ras (Homo sapiens)) does the source give for “SP1 stapled peptide 423-446 (from UniProt Q15311)” here?
Its Kd is 30 µM.

And the Kd (RalB (Homo sapiens))?
The Kd was 5 µM.

And the Kd (RalA (Homo sapiens))?
The Kd was 14 µM.

B1: FAM-labeled L-sol stapled peptide (peptide)
chain: L[S5]KEE[S5]LWEELRIKTAEKRKKREA-NH2
modifications: staple 2-6; not fully specified (N-terminus); also: 5-carboxyfluorescein (FAM) label, site not given here
What does the source list for B1?
Kd [6]: 19.8 µM; Kd [7]: 24.4 µM

B2: RLIP76 RBD WDASQSR mutant (domain or fragment)
chain: ETQAGIKEEIRRQEFLLNSLHRDLQGGIKDLSKWDRAWEVSQILSALRRKLREA
notes: RLIP76 residues 423-446 (helix α2); Selected by CIS display; source: E. coli, recombinant; cleaved from its tag
With B2 as the molecule, how does the Kd [8] read?
The Kd was 6.97 µM.

What about the Kd [9] of the same molecule?
The Kd was 3.02 µM.

B3: FAM-labeled HLR-sol stapled peptide (peptide)
chain: L[S5]KEH[S5]LWEELRIKTAERRKKREA-NH2
modifications: staple 2-6; not fully specified (N-terminus); also: 5-carboxyfluorescein (FAM) label, site not given here
Which results are given for B3?
Kd [6]: 16.6 µM; Kd [7]: 21.1 µM

B4: L-sol stapled peptide (peptide)
chain: L[S5]KEE[S5]LWEELRIKTAEKRKKREA-NH2
modifications: staple 2-6; N-terminus assumed
SMILES: CC[C@H](C)[C@H](NC(=O)[C@H](CCCNC(=N)N)NC(=O)[C@H](CC(C)C)NC(=O)[C@H](CCC(=O)O)NC(=O)[C@H](CCC(=O)O)NC(=O)[C@H](Cc1c[nH]c2ccccc12)NC(=O)[C@H](CC(C)C)NC(=O)[C@]1(C)CCCC=CCCC[C@](C)(NC(=O)[C@@H](N)CC(C)C)C(=O)N[C@@H](CCCCN)C(=O)N[C@@H](CCC(=O)O)C(=O)N[C@@H](CCC(=O)O)C(=O)N1)C(=O)N[C@@H](CCCCN)C(=O)N[C@H](C(=O)N[C@@H](C)C(=O)N[C@@H](CCC(=O)O)C(=O)N[C@@H](CCCCN)C(=O)N[C@@H](CCCNC(=N)N)C(=O)N[C@@H](CCCCN)C(=O)N[C@@H](CCCCN)C(=O)N[C@@H](CCCNC(=N)N)C(=O)N[C@@H](CCC(=O)O)C(=O)N[C@@H](C)C(N)=O)[C@@H](C)O
For B4, which Kd [10] is on record?
Its Kd is 3.09 µM.

And the Kd [11]?
Its Kd is 1810 nM.
